Data from publication doi:10.1101/2020.06.22.20137695.

Tests used:
[1] = target: HCoV-OC43 spike protein, recombinant soluble ectodomain trimer (HCoV-OC43 | bacteriophage T4) (UniProt P36334); experiment: SEC
[2] = target: HCoV-HKU1 spike protein, recombinant soluble ectodomain trimer (HCoV-HKU1) (UniProt Q0ZME7); experiment: SEC

Substance | stoichiometry N [1] | stoichiometry N [2]
HCoV-OC43 spike protein, recombinant soluble ectodomain trimer (from UniProt P36334 14-1297) (domain or fragment) | 3 | 
HCoV-HKU1 spike protein, recombinant soluble ectodomain trimer (from UniProt Q0ZME7 13-1295) (domain or fragment) |  | 3
